Substrate in data set [1]: CCCC(=O)Oc1ccc([N+](=O)[O-])cc1
Kind of data set: purified protein. The data set is classed as biochemical, Altericroceibacterium indicum. Conditions: 100 mM Tris-HCl pH 7.5, 40 °C, substrate 0.05-2 mM.

Substrate in data set [2]: CCCCCC(=O)Oc1ccc([N+](=O)[O-])cc1
Nature of the data set: purified protein. Particulars: 100 mM Tris-HCl pH 7.5, 20 °C, substrate 0.05-2 mM. The format is biochemical, Croceicoccus marinus.

B1: AlinE4 (Altericroceibacterium indicum) (protein)
chain: SMGESRVILAFGDSLFAGYGLDKGESYPAKLETALRSHGINARIINAGVSGDTTAAGLQRIKFVLDSQPDKPELAIVELGGNDLLRGLSPAEARQNLSGILEELQRRKIPILLMGMRAPPNLGAKYQREFDGIYPYLAEKYDAKLVPFFLEAVADRPDLIQKDHVHPTARGVEELVSATSNAVAKALPAKK
notes: expressed in E. coli BL21 (DE3) from pSMT3, N-terminal His-Sumo tag removed with ULP1; monomer in solution by MALS, domain-swapped dimer in crystal
For orientation: Km means the concentration of substrate that gives half-maximal velocity. In general, kcat refers to the maximal rate divided by the concentration of active sites. B1: in “purified protein [1]”, the Km was determined as 100 µM and the kcat was found to be 25.8 s⁻¹.

B2: CrmE10 (Croceicoccus marinus) (protein)
chain: MADGEAAGQQADAVMPTGPAIDVLAFGDSLFAGYRLDRDESYPARLQAALRERGLNVNVTNAGVSGDTTAAGLQRIDFVLDSMAGEPDLVLLELGANDMLRGLPAEEARRNLDTILQRLDQRDIPVMVYGMRAAPNLGGDYGRSFDSIFPDLADKYDAELVPFFIEPLIFDRSLVQQDQLHPTAQGVDAMVEQTVEQVEDRIDDL
notes: as for B1
Regarding B2, in the data set “purified protein [2]”, the Km was 160 µM and the kcat was determined as 29.4 s⁻¹.

Values taken from publication PMC7294632, “Structure-guided protein engineering increases enzymatic activities of the SGNH family esterases” (Biotechnology for Biofuels, 2020).
